This data set concerns the molecule itself. In words: crystal structure.

One protein from publication PMC4098843 (Nature communications, 2014) can be followed below.

B1: AF2299, a CDP-alcohol phosphotransferase from Archaeoglobus fulgidus (enzyme, Archaeoglobus fulgidus DSM 4304, UniProt O27985 1-344, looked up)
chain: MRLAYVKNHEIYGEKLLGLTLRERIEKTLQRAGFDVRFFDELSLEEAEDYLIILEPVLILERDLLLEGRKILVSDGFTVGYFFGGDFRTVFDGNLQSSIEKYLSLNNLESYEIWAIKLSNDNLKTAEKLLLSSLIKAKRTGLKPAYYDGWIAREINRKVSLRISRLLADTSVTPNQITVFSFFLSLVGSALFLLNSYLTTLLAGVIIQLHSIIDGCDGEIARLKFMESKYGAWLDGVLDRYSDFIIVFSITYVLSASNPVYWIIGFLAAFASLMIAYTGDKFVAAYMRTYSPEGFAIPITRDFRLLIIFACSVVNLPSLALVIIALLGNFEALRRIVALRSYTN
By stoichiometry N is commonly meant a count of units in the complex or per binding partner. On to B1, for which the “stoichiometry N” value turned out to be 2.
